Reference: publication PMC7684302, “A novel Schmallenberg virus subunit vaccine candidate protects IFNAR^-/- mice against virulent SBV challenge” (Scientific Reports, 2020)

Target: the molecule itself
Experiment: SEC; HiLoad 16/60 Superdex 200 pg column in 1X PBS, after Ni-NTA

B1: Schmallenberg virus nucleoprotein (natural protein)
chain: MSSQFIFEDVPQRNAATFNPEVGYVAFIGKYGQQLNFGVARVFFLNQKKAKMVLHKTAQPSVDLTFGGVKFTVVNNHFPQYVSNPVPDNAITLHRMSGYLARWIADTCKASVLKLAEASAQIVMPLAEVKGCTWADGYTMYLGFAPGAEMFLDAFDFYPLVIEMHRVLKDNMDVNFMKKVLRQRYGTMTAEEWMTQKITEIKAAFNSVGQLAWAKSGFSPAARTFLQQFGINI
notes: Nucleoprotein (N) of Schmallenberg virus, encoded on the S segment; cDNA ligated through AgeI/XhoI into pET-28M-SUMO3 in place of GFP; also called SBV-N; SBV N; source: E. coli BL21, purified (Ni-NTA, SEC)
binding result: binds
